Measured values published in the nanobody polyreactivity screen of Harvey et al. (2022).

Assay: yeast display, Sf9 membrane polyspecificity reagent, FACS + sequencing; frameworks hold sequencing errors
Procedure, shortened: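 Galactose-induced (36–48 hours) yeast carrying a synthetic nanobody display library were exposed to 10% biotinylated, detergent-solubilized Sf9 membrane reagent at 4 °C for 1 hour. FACS followed streptavidin microbead enrichment, using low and high (top ~1%) gates for expression (anti-HA) and reagent binding (streptavidin). Colony PCR, MiSeq 2 × 250 sequencing and CDR-length filtering followed. Labels for polyreactivity reflect the gate of origin.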

Sequence	polyreactivity (PSR sort gate)
QVQLVESGGGLVQAGGSIRLSCAASGSTFLIKAMGWYRQAPGKERELDASINRRGTSTFYADSVKARFTISRDNAKNTVYLQMNSLKPDDTAVYYCNAYPGAAIRSTGRYDYWGQGTQVTVSS	low polyreactivity
QVQLVESGGGLVQAGGSLRFSCAASGRISPSYAMGWNRKAPGKERELVAAIYRGGSTSYADSVKGRFTISRDNAKNNVYLQMNSLKPEDTAVYYCATRGPRYRYYYWGQGTQVTVSS	high polyreactivity
QVQLVESGGGLVQAGGSLRLSCAASGSTFVTNDMGWYRQAPGKERELVAAISSGTSTNYADSVKGRFTISRDNAKNTVYLQMNSLKPEDTAVYYCAADSLKRYDYWGQGTQVTVSS	low polyreactivity
QVQLVESGGGLVQAGGSHRLSCAASGSTFWGYTMRWYRQAPGKERELVAAITRSSGRTYYADSVKGRFTISRDNAKITVYLQMNSLKPEETAVYYCNAAAVGRRTWSPYDYWGQGTQVTVSS	high polyreactivity
QVQLVESGGGLVQAGGSLRLTCAASGFILKYYAMGWYRHAPGKERHLVAAITVSGGSTYYADSVKGRFTISRDNAKNTVYLQMNSLKPEDTAVYYCNADYPRGGAGLLDYWGQCTQVTVSS	low polyreactivity
QVQLVESGGGLVQPGGSLRLSCAASGSIFPYYAKGWYRKAPGKERELVADITSSGGSTYYADSVMGRFTISRDNAKNTVYLQMNSLKPEDTAVYYCAADGAVVSSSRKFGYWGQGTQVTVSS	low polyreactivity
QVQLVESGGGLVQAGGSLRLSCAASGSTFGVYAMGWYRQAPGKERELVAAISGSGGSTYYADSVKGRFTISRDNAKNTVYLQMNSLKPEDTAVYYCAAKVRHYYSASNYYYWGQGTQVTVSS	high polyreactivity
QDHLVESGGGLVQAGGSLRLSCAASGGIFYGYAMGWYRQAPGKERELVAAISTSDASTYYADSVKGRFTFSRDNAKNTVFVQMNSLKPEATAVYYCATDLPDGYDYWGQGTQVTVSS	low polyreactivity
QVQHVESGGGLVQAGGSLRLSCAASGRIFNRYAMVWYRQAPGKERELVAAISASGDNTYYADSVKGRFTISRDNAKNTVYLQMISLKPEDTAVFYCAARYYTYLHFSMYYWGQGTQVTVSS	high polyreactivity
QVHLVESGGGLVQAGGSLRLSCAASGRTIGVNAMGWYRQPHGTERELVAAITKDSGATNYADSVKGLFTISRDNAKITVYFQMNSLKADDTAVYYCAARVWVRGYYWGQGTQVTVSS	low polyreactivity
QVQLVESGGGLVQAGGSLSLSCAASGSIFWSYAMGWYRQAPGKERELVAAITTDGGTNYADSVKGRFTISRDNAKNTVYLQMNSLKPVDTAVYYCAADTDPKPRIDYTLRMDYWGHGTQVTVSS	low polyreactivity
QVQLVESGGGLVQAGGSLRLSCAASGFIYSTYAMGWYRQAPGKERELVAAISWSGGRTNYADSVKGRFTISRDNAKNTVYLQMNSLKPEDTAVYYCAVGGERGARIGSNHRGSRYDYWGQGTQVTVSS	high polyreactivity
QVQLVESGGGLVQAGGRLRLSCAASGFNFHYYAMGWYRQAPGKERELVAAISWSSGRTYYADSVKGRFTISRDNEKNTVYLQMNSLKPEDTAVYYCAASSYNRGDYWGQGTQVTVSS	high polyreactivity
QVQLVESGGGLVQAGGSLRLSCAASGRTLRLNAMGWYRQAPGKQREFVDAISRSGDSTYYADSVKGRFTISRDNAKNTVYLQMNSLKPEDTAVYYCNAKYYRYPCAYRYDYWGQGTQVTVSS	high polyreactivity
QVQLVESGGGLVQAGGSLRLSCAASGLTFYYYAMGWYRQAPGKERQLVAAISRSGGSTYYADSVKGRFTISRDNAKNTVYLQMNSLKPEDTAVYYCAAREPYEGQRYYYEYYYWGQGTQVTVSS	high polyreactivity
QVQLVESGGGLVQAGGSLRLSCAASGRIFYTNAMGWYRQAPGKERELVAVISWGGDTTYYADSVKGRFTISRDNATNTVYLQMNSLKPEDTAVYYCNADWGPTYEIYDSWGQGTQVTVSS	low polyreactivity

Sequence	polyreactivity (PSR sort gate)
QVQLVESGGGLVQAGGSLRLSCAASGRIFYYNAMGWYRQAPGKERELVAAITKSSGSTYYADSVKGRFTISRDNAKNTVFLQMNSLKPEDTAVYYCAKDKYLVFGFVGGDYWGQGTQVTVSS	low polyreactivity
QVQLVESGGGLVQAGGSLRFSCAASGRTFYRYAMGWYRQAPGKERVLVAAISGSGGSTYYADSVKGRFTISRDNAKNTVYLQMNSLKPEDTAVYYCAADGPSHHGDDDYWGQGTQVTVSS	low polyreactivity
QVQLVESGGGLVQAGGSLRLSCAASGSPFSVYAMGWYRQAPGKERELVAAISWTVGSTYYADSVKGRFTISRDTAKNTVYLQMNSLIPEDTAVYYCAADIYWHYDYWGQGTQVTVSS	high polyreactivity
QVQLVESGGGLVQAGGSLRLSCAASGRTFEGNAMGWYRQAPGKERELVAAITSGGRTNYADSVKGRFTISRDNAKNTVYLQMNSLKPEDTAVYYCAKVYRSIGPNVSRYGLSYYYWGLGTQVTVSS	low polyreactivity
QVQLVESGGGLVQAGGSLRLSCAASGFIFRGYAMGWYRQAPGKERELVAAISRSGGSTYYADSVKGRFTISRDNAKNTVYLQMNSLKPEDTAVYFCAVALFETGHYYWGQGTQVTVSS	high polyreactivity
QVQHVESGGGLVQAGGSLRLSCAASGSIFTGNAMGWYRQAPGKERELVAAISSSGGSTYYADSVKGRFTISRDNAKNTVYLQMNSLKPEDTAVYYCAAYNYFLQYDYWGQGTQVTVSS	low polyreactivity
QVQLVESGGGLVQAGGSLRLSCSACGGIFDWYAMGWYRQAPGKERELVAAIDFSGDSTYYADSVKGRFTISRDNAKNTVYLQMNSLKPEDTAVYYCAAETNTWYLFDYWGQGTQVTVSS	high polyreactivity
QVQLVESGGGLVQAGGSLRLSCAASGRIVSLNAMGWNRQAPGKERELVAGIRKRGRSTYYADSVKGRFTISRDNAKNTVYLQMNSLKPEDTAVYYCAAQPALTYRFYYWGQGTQVTVSS	high polyreactivity
QVQLVESGGGLVQAGCSHSLSCAASGSIFWNNAIGSFRQAPVKEREFVAGITGRGGSTYYADSVKGRFTISRDNAKNTVYLQMNSLKPEDTEVYYCATRYLVYRGKYDYWGQGTQVTVSS	high polyreactivity
QVQLVESGGGLVQAGGSLRLSCAASGFTFKYYVMGWYRQAPGKERELVASISKRGGSRNYADSVKGRFTISRDNAKNTVYLQMNSLKPEDTAVYYCAADYPATSGPRHYYWGQGTQVTVSS	high polyreactivity
QVQLVESGGGIVQAGGSLRLTCAASGFIFWDYAMGWYRQAPGKERELVAAISDSGGDTYYADSVKGRFTISRDNAKNTVYLQMNSLNPEDTAVYYCASVVELWVFRGQQYDYWGQGTQVTVSS	low polyreactivity
QVQLEESGGGLVQAGGSLRLSCAASGSTFYDYAMGWYRQAPGKERELVAAINGNGDSTYYADSVKGRFTISRDNAKNTVYLQMNSLKPEDTAVYYCAAYLGWGYDYWGQGTLVTVSS	low polyreactivity
QGQLVESGGGLVQAGGSLRLSCAASGSTFGYNVMGWYRQAPGKERELVAAINYSGVRTYYADSVKGRFTISRDNAKNTVYLQMNSLKPEDTAVYYCNATPTRAVGPYQYNYWGQGTQVTVSS	high polyreactivity
QVQLVESGGGLVQAGGSLRLSCAASGRTFVYYAMGWYRQAPGKERELVAAITSGGSTNYADSVKGRFTISRDNAKNTVYLQMNSLKPEDTAVYYCNAYGVSWFYYTWKYDYWGQGTQVTVSS	low polyreactivity
QVQLVESGGGLVQAGGSLRLSCAASGSILRSYAMGWYRQAPWKERELVAVINGSGGRTYYADSVKGRFTISRDIAKNTVYLQMNSLKPEDTAVYYCNADPGGRYPRRGYAHEGDYWGQGTQVTVSS	low polyreactivity
QVQLVESGGGLVQAGGSLRLSCAASGRIFSTYVMGWYRQAPGKERELVAAITWSGGSTYYADSVKGRFTISRDTAQNTVYLQMNTLKPEDTAVYYCAADEIYGYDYWGQGTQVTVSS	high polyreactivity
